The text below walks through data of the RNAGym collection of RNA variant scans (doi:10.1073/pnas.2313332121).

Sequences and labels used below:
B1: TPR t1 (parent)
chain: GACCAAUCUGCCCUCAGAGCUCGAGAACAUCUUCGGAUGCAGAGGAGGCAGGCUUCGGUGGCGCGAUAGCGCCAACGUCCUCAACCUCCAAUGCAUCCCACCACAUGAUGAUGCCUGAAGAGCCUUGGUUUUUUG

The variants in the series derive from B1. Nature of the series: polymerase ribozyme fitness, log enrichment relative to wild type (log ratio); higher = more active; in vitro selection for triplet polymerase activity. An outline of the steps: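 Each subunit of a heterodimeric triplet polymerase ribozyme was represented by a PCR-built, transcribed mutant library that underwent triplicate single-round in vitro selection with frozen incubation at −7 °C. Extended constructs were recovered by gel excision, streptavidin-bead capture and RT-PCR, and Illumina sequencing of input and output libraries kept genotypes with ≥10 input reads and ≥1 read per output. Fitness is the logarithm of genotype enrichment relative to wild-type enrichment, from inverse-variance-weighted replicate averages, with a logarithm base of 2.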
In the case of U96A A121C U126A, the “polymerase ribozyme fitness (log ratio)” value was -0.501. Next, U92A G110A: -5.07.

For the variant U92A G110C, the “polymerase ribozyme fitness (log ratio)” value was -6.13. Next, C94G U131G U132G: -1.88.

As for C89G G113U, the “polymerase ribozyme fitness (log ratio)” value was -3.93. Regarding C89G G113A, the “polymerase ribozyme fitness (log ratio)” value is -3.42. C101U G128A: the “polymerase ribozyme fitness (log ratio)” value was -2.16.

For the variant G93U U96G C124A, the “polymerase ribozyme fitness (log ratio)” value came to 0.232. The result for U87C U130C reads 0.298; that for U96A G110U, -2.56. Next, G93C G127A: -1.89; U96A C99G G110C: -6.97. Consider U87C G107U, for which the “polymerase ribozyme fitness (log ratio)” value is -4.55. With C89A A91U, the “polymerase ribozyme fitness (log ratio)” value is -1.18. Regarding C88U G93A A108G C115U A118U G135C, the “polymerase ribozyme fitness (log ratio)” value was -4.45.

With U96G A100U C104U, the “polymerase ribozyme fitness (log ratio)” value was -0.962. As for C89A C123U, the “polymerase ribozyme fitness (log ratio)” value is -0.0853.

Turning to C99A C124U, the “polymerase ribozyme fitness (log ratio)” value was -4.66.

Turning to C89G G93U G120U, the “polymerase ribozyme fitness (log ratio)” value was -3.31. As to C94U A95C, the “polymerase ribozyme fitness (log ratio)” value was -1.19. As to C94U A95G, the “polymerase ribozyme fitness (log ratio)” value is -0.3. The result for C97G G120U U126C reads -4.9. As for C98A U133G, the “polymerase ribozyme fitness (log ratio)” value is -6.12.

As for A95U C115A, the “polymerase ribozyme fitness (log ratio)” value is -1.22.

As to C88A A121C, the “polymerase ribozyme fitness (log ratio)” value is 1.66. As for A95G C114G, the “polymerase ribozyme fitness (log ratio)” value is -3.45. With C98G G120A, the “polymerase ribozyme fitness (log ratio)” value was -4.76. The result for U87A C124U reads 1.04. Next, G93U U112G: -1.63. The result for C86U U87A C101A U129G reads -3.91; that for C89U C99G A100C C123G, -7.05.

Regarding C89G A111C, the “polymerase ribozyme fitness (log ratio)” value was -2.08. As to C97U C124U, the “polymerase ribozyme fitness (log ratio)” value was found to be 0.498. Next, C99A A121G: -4.75; C89A G120A G128C U132C: -3.37; C101G A121U: -0.28. As for C98U C123U, the “polymerase ribozyme fitness (log ratio)” value is -1.28. The result for U87A A105U U116C reads -3.54. Next, G93C C114G: -4.17; A95U G120A: -0.385; A100U: -0.595.

Consider A100C, for which the “polymerase ribozyme fitness (log ratio)” value was -0.919. The result for A100G reads -2.32. Next, A100C U112G U116A: -4.36; U96A U116G U130A: -3.12; C88U G93A: -0.936. Next, A90G C104U U112C A121U U130C: 2.04.

For G93C G120U, the “polymerase ribozyme fitness (log ratio)” value was -1.78.

Take G93C G120C: the “polymerase ribozyme fitness (log ratio)” value was -1.19. Next, U96A C114U: -3.4; U87C C98A: -4.87; U87A C115A: 0.108. In the case of U87A C115U, the “polymerase ribozyme fitness (log ratio)” value was -0.739.

On to U92A C123G, for which the “polymerase ribozyme fitness (log ratio)” value is -0.636. In the case of U92A C123A, the “polymerase ribozyme fitness (log ratio)” value is -3.22. The result for C99G U112C U133A reads -6.59; that for C88A C101A, -1.2. Regarding A91G U112A G127C, the “polymerase ribozyme fitness (log ratio)” value was -1.56. In the case of C88U G110C, the “polymerase ribozyme fitness (log ratio)” value is -3.92. Regarding C99U C124A, the “polymerase ribozyme fitness (log ratio)” value is -1.1. Next, U96C C123G G127C: -0.432.

In the case of G93A C104A G113C, the “polymerase ribozyme fitness (log ratio)” value was -4.27.

As for U87G C124A, the “polymerase ribozyme fitness (log ratio)” value was found to be 0.735.

C89A A111U G122A: the “polymerase ribozyme fitness (log ratio)” value is -4.54. The result for U87G G93A U112A U133A reads 1.36; that for C101U A121G, 1.57; that for A90G C101G C115G, -2.74. Next, A90C A100U A111G: -1.79. Next, C99G A121U: -6.54; A91U C98U: -3.3. Take C94A A111U: the “polymerase ribozyme fitness (log ratio)” value was -0.728. In the case of G93A G117C U130G, the “polymerase ribozyme fitness (log ratio)” value was -5.98. As to A95C U109A, the “polymerase ribozyme fitness (log ratio)” value is -7.08.

Regarding G93A U132A, the “polymerase ribozyme fitness (log ratio)” value was -1.15. With C88U U129C, the “polymerase ribozyme fitness (log ratio)” value is -0.178. The result for A90U G110U reads -3.55; that for G93U C124G, 0.697.

Take C89A G93A U106A: the “polymerase ribozyme fitness (log ratio)” value is -3.07. The result for C98U C124G reads -0.72; that for C89A C124U, 0.618; that for U96A U106A, -0.585.

C89U G122U: the “polymerase ribozyme fitness (log ratio)” value was -0.616. Next, C89U G122A: -0.697; C89A U130G: -1.51. The result for G93A C123A reads 0.264; that for C89U A108G A119G U131G U132C, -1.34. Next, U87C G120A G127A: -1.22; U96A C104U U132A: -0.322. Regarding A95G U109C, the “polymerase ribozyme fitness (log ratio)” value is -5.61. As for C94A G110A, the “polymerase ribozyme fitness (log ratio)” value was -2.19. With G93A G113U C114G, the “polymerase ribozyme fitness (log ratio)” value was -2.9. As for C97U G120U U130C, the “polymerase ribozyme fitness (log ratio)” value was -0.251. Next, C99U C102G: -6.32; A95C G113C C124G: -1.76.

On to U96G U106C, for which the “polymerase ribozyme fitness (log ratio)” value is -1.3. Next, A91U A121C C124A: 0.449. Turning to C97G C115G, the “polymerase ribozyme fitness (log ratio)” value was -3.69. Next, C98U C102A: -5.43. For the variant C88G G117C U133A, the “polymerase ribozyme fitness (log ratio)” value is -3.79.

Consider A90U C114G G117A, for which the “polymerase ribozyme fitness (log ratio)” value was -4.57.

A95G A103C G120U G135U: the “polymerase ribozyme fitness (log ratio)” value was -6.78. Next, G93C A121U U133G: 1.15; C86U G120A U130C G135U: -0.0631. A91C: the “polymerase ribozyme fitness (log ratio)” value is -1.4.

For the variant A91U, the “polymerase ribozyme fitness (log ratio)” value is -1.81. Consider A91G, for which the “polymerase ribozyme fitness (log ratio)” value is -0.586. With U92C U132C, the “polymerase ribozyme fitness (log ratio)” value is -1.85.

As to C88A C123U, the “polymerase ribozyme fitness (log ratio)” value was 1.08. The result for U87A C88U reads -1.46; that for C97G A118U U126A, -5.69. For the variant C86U G113A G127C, the “polymerase ribozyme fitness (log ratio)” value was -1.64. Next, A90C C97U U112C C114A: -3.18; A91G C97A A118U: -5.26.

For the variant G93U C115U, the “polymerase ribozyme fitness (log ratio)” value is -1.63.

For G93U C115A, the “polymerase ribozyme fitness (log ratio)” value is -2.49. Turning to U92A U106C C114A, the “polymerase ribozyme fitness (log ratio)” value is -4.09. Turning to A100C G122A, the “polymerase ribozyme fitness (log ratio)” value is -1.49. Take U87A G122A: the “polymerase ribozyme fitness (log ratio)” value was -0.168. The result for U87C C114G reads -2; that for C88A C101U A111U, -3.57. For A95G U116A C124U, the “polymerase ribozyme fitness (log ratio)” value was -0.576. With A90C C115A, the “polymerase ribozyme fitness (log ratio)” value was -0.409.

For the variant C94A G120C, the “polymerase ribozyme fitness (log ratio)” value was -1.64.

For C89U C123A, the “polymerase ribozyme fitness (log ratio)” value stood at 0.125. As for G93A G122A U125G, the “polymerase ribozyme fitness (log ratio)” value is -3.18. The result for U87C C124U reads 0.583; that for A95U G113A, -2.53. With G93C C123G, the “polymerase ribozyme fitness (log ratio)” value was -0.285. The result for A95C C97U reads -2.11. The result for G93C G110U G120A reads -3.34; that for U87C A105G, -1.78. For the variant A90G C101A C123A, the “polymerase ribozyme fitness (log ratio)” value is -0.711. Next, C101G C114U: -3.32; C101G U112C: -0.331; G93C U109A G117U G120C: -6.83.

A100C U130G: the “polymerase ribozyme fitness (log ratio)” value was -0.881. The result for A90U U125G reads -1.11. For G93C G117C, the “polymerase ribozyme fitness (log ratio)” value was -4.74. Next, C97A C124A: -2.9; C89A A105C: -4.64. The result for A90U U116C reads -1.26; that for C97U U112G, -0.123. The result for U87A G113A reads -1.76; that for C94A A105U A121C, -2.21; that for C88A G113U, -2.76.

On to C101A G120C, for which the “polymerase ribozyme fitness (log ratio)” value was -0.0201. With C94G C101U, the “polymerase ribozyme fitness (log ratio)” value is -1.46. On to A90G A95C, for which the “polymerase ribozyme fitness (log ratio)” value was -0.759. The result for C89G A100C reads -3.25; that for G93A C98U C124G, 0.653; that for C101A G110A C123A, -3.51.

Consider C86U U112A, for which the “polymerase ribozyme fitness (log ratio)” value came to 0.825. Consider U92A U109G, for which the “polymerase ribozyme fitness (log ratio)” value is -5.94.

Take C88U A121C: the “polymerase ribozyme fitness (log ratio)” value was 1.77. In the case of C89A A121U U125G, the “polymerase ribozyme fitness (log ratio)” value was -0.211. For the variant C98A C124G G128A U133G, the “polymerase ribozyme fitness (log ratio)” value was -6.31. The result for U87C A103U reads -3.8; that for C101A U116A, -3.39; that for A90C C104U A105C, -5.64. Next, U92A U116C: -3.44; C89U U109C: -3.31. Next, C101U C115U C124U: -0.886. Regarding C97U G110U A111G, the “polymerase ribozyme fitness (log ratio)” value was -3.06. The result for G93U U132C reads -1.31; that for C99U C123G, -1.13.

Consider A100U U126G G135U, for which the “polymerase ribozyme fitness (log ratio)” value is -2.69. With C99U G122U, the “polymerase ribozyme fitness (log ratio)” value is -3.2.
